Biological target: T1, biotinylated SNAP tagged C. elegans heterodimeric capping protein (CAP-1/CAP-2) (C. elegans, UniProt P34685 1-282; P34686 1-270, biotin on the SNAP tag (benzylguanine-biotin); the subunit that carries it is not stated | biotin on the SNAP tag (benzylguanine-biotin); the subunit that carries it is not stated)
T1 construct: CAP-1, a capping protein subunit of C. elegans; CAP-2, a capping protein subunit of C. elegans; The complex was anchored to streptavidin-coated coverslips by the biotin; also called SNAP-CP; CP; source: E. coli BL21 DE3, purified (HisTrap, Superose 6), labelled with benzylguanine-biotin; not shown: His tag (from the HisTrap purification)
T1 sequence (looked up) 1: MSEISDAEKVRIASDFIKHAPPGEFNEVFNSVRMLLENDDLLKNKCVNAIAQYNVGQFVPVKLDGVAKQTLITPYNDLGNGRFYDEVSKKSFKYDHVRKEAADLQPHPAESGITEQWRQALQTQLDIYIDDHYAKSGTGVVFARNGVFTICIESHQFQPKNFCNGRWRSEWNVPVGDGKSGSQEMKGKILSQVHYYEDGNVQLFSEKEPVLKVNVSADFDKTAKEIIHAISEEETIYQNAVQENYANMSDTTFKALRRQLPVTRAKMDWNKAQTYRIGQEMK
T1 sequence (looked up) 2: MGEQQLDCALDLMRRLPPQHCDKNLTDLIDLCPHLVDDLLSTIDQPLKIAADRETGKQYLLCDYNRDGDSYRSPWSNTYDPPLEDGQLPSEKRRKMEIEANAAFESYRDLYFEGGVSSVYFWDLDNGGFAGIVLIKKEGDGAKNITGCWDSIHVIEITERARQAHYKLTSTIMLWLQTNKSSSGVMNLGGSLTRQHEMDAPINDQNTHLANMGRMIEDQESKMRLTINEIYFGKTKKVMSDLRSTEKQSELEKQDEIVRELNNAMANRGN
Assay: mf-TIRF microscopy uncapping assay; biotinylated SNAP-CP anchored to the coverslip; preformed Alexa-488-labelled (15%) ADP-actin filaments captured; filament detachment followed with and without TWF-2 in TIRF buffer (10 mM imidazole pH 7.4, 50 mM KCl, 1 mM MgCl2, 1 mM EGTA, 0.2 mM ATP, 10 mM DTT); survival fitted to a single exponential
Details: both partners purified

B1: C. elegans TWF-2 (6×His-tagged), recombinant (natural protein, UniProt Q20173 1-333, looked up)
chain: MACQTGIRANAALRNALNLGKQAKLRLIKIVVNNEEMTPNYEFAGTANWRDDWRACLPDCVDAYEPCFILFRLNTITEWVLITFVDDRAPVREKMLLAATCATFKSEFGQCYIEHEKHVTDLKDLTLNAFEAWLKAKTELGPMSEVERELHNAQQERAAIAHAGPQHMKGVAFPVDRNAEEALRQLASQKLSFVQLSVDTLNEAIKLEGTLESLEPSQLASKVPRDKPRYTFYNFDHTWEGVPQQCTLFIYSLPSSGSSIKERMLYSSCKGPFLSAAQNQYGVVITNKMEVDARDDLSEKALLEVIHPLPVEAPKQFSRPAPPRAGPRRITKV
notes: TWF-2, the sole twinfilin ortholog of C. elegans; also called twinfilin; C. elegans twinfilin; source: E. coli BL21 (pRare), purified (Ni-NTA, Superdex 75 Increase)
fold acceleration of uncapping of CP from actin filaments: > 90 fold

From publication doi:10.1101/2025.06.17.660173, “Twinfilin is a potent uncapper of actin capping protein and modulates actomyosin contractility in the C. elegans spermatheca” (bioRxiv, 2025)
